According to article PMC7337067, “Cryo-electron microscopic and X-ray crystallographic analysis of the light-driven proton pump proteorhodopsin reveals a pentameric assembly” (Journal of Structural Biology: X, 2020):

Target: the molecule itself
Experiment: crystal structure; 3D crystals of purified GPR, 50 mM MES pH 6, 25 mM MnCl2, 30% PEG 400; anisotropic diffraction to 4.44 Å; molecular replacement with pentameric HOT75BPR (PDB 4KLY); no atomic model built

B1: green-light absorbing proteorhodopsin (GPR), untagged (natural protein, γ-proteobacterium)
chain: MAGGGDLDASDYTGVSFWLVTAALLASTVFFFVERDRVSAKWKTSLTVSGLVTGIAFWHYMYMRGVWIETGDSPTVFRYIDWLLTVPLLICEFYLILAAATNVAGSLFKKLLVGSLVMLVFGYMGEAGIMAAWPAFIIGCLAWVYMIYELWAGEGKSACNTASPAVQSAYNTMMYIIIFGWAIYPVGYFTGYLMGDGGSALNLNLIYNLADFVNKILFGLIIWNVAVKESSNA
modifications: all-trans retinal covalently linked via a Schiff base to a conserved lysine
notes: N-terminal methionine added to the construct; theoretical MW of the monomer 25.5 kDa; Stop codon placed before the HRV 3C site and decahistidine-tag of pZUDF21, so no tag on the protein; Pentamer by crystallography and cryo-EM; also called untagged GPR; tag-free GPR; source: E. coli BL21(DE3) Rosetta2 (pZUDF21stop); purified from Cymal-5 solubilized membranes (Q Sepharose IEC, Superdex 200 SEC); …
stoichiometry N: 5
